Measurements: the supplement of paper PMC10567573

B1: MTMR15 (parent)
chain: FSPDFTLRNTLKSTSEDSLVKQEC

Variants of: B1
Assay: protein stability index of a GFP-peptide fusion (GPS, HEK-293T) (PSI 1-6); higher = more stable
Conditions: c terminus: a fixed tail appended
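Further: lentivirally expressed fusions sorted by FACS into six bins by GFP to DsRed ratio, PSI derived from sequencing read proportions per bin multiplied by bin number.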

Protein stability index of substitutions, site by site:
T6: R 1.77 | F 1.84 | S 2.27 | W 1.84 | A 1.72 | P 1.92 | N 1.77 | Y 2.46 | K 2.01 | L 2.8 | E 3.39 | D 2.7 | C 2.73 | H 1.45
S13: M 2.02 | R 3.03 | I 2.56 | W 2.66 | E 2.11 | C 2.08 | T 1.53 | Q 2.31 | N 2.69 | D 2.02 | H 2.42 | A 1.9 | V 1.97 | L 1.83 | Y 2.35 | F 2.13 | K 1.58 | P 2.12 | G 1.81
S2: Q 3.32 | F 4.04 | L 3.19 | I 1.92 | D 5 | N 3.68 | Y 4.52 | T 2.23 | W 3.6 | M 3.69 | K 4.27 | V 2.88 | G 2.48 | A 2.08 | C 2.19 | E 4.8 | H 2.55 | R 4.02 | P 2.9
D4: V 2.01 | E 1.94 | I 2.05 | C 1.78 | T 2.07 | Y 3.03 | S 1.9 | F 1.53 | M 1.61 | H 1.95 | W 1.96 | R 2.65 | P 4 | L 1.94 | K 2.23 | Q 1.45 | A 2.44 | G 2.65 | N 2.23
N9: C 2.35 | Y 3.7 | W 2.62 | G 1.93 | F 2.7 | Q 1.96 | K 2.11 | H 1.57 | S 2.34 | E 1.72 | D 1.54 | A 1.67 | L 2.02 | M 2.64 | V 2.18 | T 2.09 | R 2.62 | I 2.41 | P 1.82
L7: E 2.99 | D 3.03 | S 2.08 | Q 2.16 | N 1.91 | G 2.48 | I 2.3 | T 2.75 | V 1.83 | A 1.99 | C 2.25 | M 3.06 | Y 2.27 | R 2.56 | F 2.04 | K 2.39 | H 2.15 | W 2.16 | P 2.54
T14: G 2.49 | P 1.69 | M 2.05 | Q 2.31 | S 2.1 | C 2.78 | E 2.64 | H 1.96 | A 1.54 | D 2.1 | N 2.11 | R 1.77 | V 2.43 | Y 1.72 | K 1.73 | W 1.58 | F 2.82 | I 1.62 | L 2
S15: E 1.82 | P 1.83 | F 2.63 | G 2.33 | A 1.64 | M 1.99 | W 2.02 | V 1.48 | Q 1.84 | K 1.73 | N 1.43 | L 1.96 | H 1.93 | I 1.73 | T 1.85 | D 1.95 | Y 1.83 | R 2.34 | C 2.71
P3: I 2.44 | Q 2.83 | R 1.98 | N 3.08 | C 2.64 | D 3.91 | S 2.67 | A 1.97 | E 3.14 | G 2.27 | M 1.99 | F 2.83 | V 2.58 | H 3.05 | T 2.76 | W 1.97 | K 2.26 | L 2.24 | Y 2.76
D17: A 1.89
